Results on eight molecules are retold here after publication PMC9884143 (2023).

To fix the notation:
B1: CoV2-YD-3 (antibody, V domains shown)
VH: QVQLVESGGGLVQAGGSLRLSCVASTTWFSNFGMGWYRQAPGKQRELVAGITYDGTTKYVDSVKGRSTIARDNAKNTVSLQMNSVKPGDTAIYYCNTYPSQLWNWGQGTQVTVS
B2: CoV2-YD-6 (antibody, V domains shown)
VH: QVQLVESGGGSVQVGGSLRLSCAASGMTFSSATMAWYRQAPGKQREWVAGIGSGGRTSYASSMKGRFTISRDNAKNTVYLQMNSLKPEDTAVYYCYTALLSGGDYWGQGTQVTVS
B3: CoV2-YD-8 (antibody, V domains shown)
VH: QVQLVESGGGLVQPGGSLSLSCAASGSMNSMNPMGWYRQAPGKEREVVARISSGGSTTYTDSVKGRFTISRDSAKNTVYLQMNSLKPDDTAVYYCYIIDDYGVQYWGKGTQVTVS
B4: CoV2-YD-33 (antibody, V domains shown)
VH: DVQLVESGGGLVQAGGSLRLSCVASGSTDSNYVMGWHRQTSGKQSEWVASIESGGEKKIVDSVKGRFTISRDNAKNTVYLQMNSLKPEDTAVYYCFYERLAWDTSTYWGQGTQVTVS
B5: CoV2-YD-34 (antibody, V domains shown)
VH: DVQLVESGGGLVQAGGSLRLSCVASGSTDSNYVMGWYRQTSGKQREWVASINSGGETRSADSEKGRFTISGDNAKNTVYLQMNSLKPEDTGVYYCFYERLAWDTSTYWGQGTQVTVS
B6: CoV2-YD-7 (antibody, V domains shown)
VH: QVQLVESGGGLVQPGGSLRLSCTASVHPFSIYDMGWYRQAPGKQRVLVASISSDGTTDYADSVKGRFTISRDNAKNTVYLQMDSLKPEDTAVYYCNLAYVTWGQGTQVTVS
B7: CoV2-YD-2 (antibody, V domains shown)
VH: QVQLVESGGGLVQPGGSLRLSCSISGFSFGYSAIGWFRQAPGLEREWVSTISSNGDDTVYADSVKGRFTISRDNAKNTVYLQMDSLKPEDTAVYYCARSFRWSRLPRDYDSWGQGTQVTVS
B8: CoV2-YD-9 (antibody, V domains shown)
VH: QVQLVESGGGLVQAGGSVRLSCAASGITFSNYASQWFRQTPGKAREFVAAISGGGTTSYAASVKGRFTLSRDNAKNTVYLQMNDLKFEDTAVYYCHTADLYSDYWGQGTQVTVS

In this test the target is SARS-CoV-2 Spike S1 (Wuhan; S1 or RBD) (Severe acute respiratory syndrome …, UniProt P0DTC2). Put plainly: SPR.
With B1, the Kd was found to be 0.0409 nM.
To B2 belongs 2.91 nM; to B3, 0.126 nM; to B4, 3.54 nM.
B5 gave a Kd of 0.541 nM.
To B6 belongs 3.24 nM.
On to B7, for which the Kd amounted to 3.68 nM.
In turn, B8 displayed a Kd of 0.0164 nM.
